Consider one substance from patent publication US20240076381A1.

As a reminder, the Kd is the concentration at which binding is half-saturated.

The assay concerns the target FcRn-µ2m fusion protein (human β2m fused by (Gly4Ser)3 to the extracellular domain of human FcRn, His-tagged) (human) (UniProt P61769). As to the kind of experiment: ELISA on coated FcRn-β2m fusion, pH 6; KD estimated by saturation binding fit.
Sequence of UniProt P61769 (P61769 other isoform, or with tags, fused parts or gaps limits assumed): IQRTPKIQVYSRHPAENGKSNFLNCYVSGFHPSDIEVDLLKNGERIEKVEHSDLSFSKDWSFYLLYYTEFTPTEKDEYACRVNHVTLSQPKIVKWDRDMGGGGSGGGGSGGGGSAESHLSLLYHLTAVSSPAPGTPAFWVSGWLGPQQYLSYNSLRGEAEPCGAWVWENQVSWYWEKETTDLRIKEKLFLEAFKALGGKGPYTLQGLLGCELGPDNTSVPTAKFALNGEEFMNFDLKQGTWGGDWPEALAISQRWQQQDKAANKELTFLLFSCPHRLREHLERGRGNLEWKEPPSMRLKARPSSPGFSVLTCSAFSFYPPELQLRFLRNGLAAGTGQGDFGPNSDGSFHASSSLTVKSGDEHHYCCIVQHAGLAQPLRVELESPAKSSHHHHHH

Take Trastuzumab IgG (antibody): the Kd was 900 nM.
